# Experimental data reported in US20250152742A1, “COMPOSITIONS AND METHODS FOR NEUROLOGICAL DISEASES” (Trames Bio, Inc., priority 2022, published 2025).
# B1: CODA1027: engineered receptor: R101F, L131D in SEQ ID NO: 33 (protein)
# chain: MRCSPGGVWLALAASLLHVSLQGEFQRKLYKELVKNYNPLERPVANDSQPLTVYFSLSLLQIMDVDEKNQVLTTNIWLQMSWTDHYLQWNVSEYPGVKTVFFPDGQIWKPDILLYNSADERFDATFHTNVDVNSSGHCQYLPPGIFKSSCPMDLKNFPMDVQTCKLKFGSWSYGGWSLDLQMQEADISGYIPNGEWDLVGIPGKRSERFYECCKEPYPDVTFTVTMRRRMGYYLIQMYIPSLLIVILSWISFWINMDAAPARVGLGITTVLTMTTQSSGSRASLPKVSYVKAIDIWMAVCLLFVFSALLEYAAVNFVSRQHKELLRFRRKRRHHKSPMLNLFQEDEAGEGRFNFSAYGMGPACLQAKDGISVKGANNSNTTNPPPAPSKSPEEMRKLFIQRAKKIDKISRIGFPMAFLIFNMFYWIIYKIVRREDVHNQ
# modifications: synthetic sequence of chimeric LGIC
# System: engineered chimeric receptor SEQ ID NO: 33 and its mutants (human α7-nAChR ligand binding domain / human GlyRα1 ion pore domain) in Lenti-X 293T cells
# Experiment: YFP fluorescence quenching anion reporter plate reader assay (percent quench, EC50)
# Type: cell-based
# Conditions: for YFP fluorescence quenching using CNL001 (percent quench): receptor named in row; for YFP fluorescence quenching using Varenicline, 3 nM var: ligand Varenicline 3 nM; for YFP fluorescence quenching using Varenicline, 30 nM var: ligand Varenicline 30 nM; for YFP fluorescence quenching using Varenicline, 300 nM var: ligand Varenicline 300 nM; for YFP fluorescence quenching using Varenicline, 500 nM var: ligand Varenicline 500 nM; for YFP fluorescence quenching using Varenicline, 1 uM var: ligand Varenicline 1 uM
# Method in brief: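 Lenti-X 293T cells co-expressing an anion-quenchable YFP were transiently transfected with receptor DNA, then ligand was added in NaI-substituted buffer (pH 7.2) after 30 min at 37 °C. Fluorescence was read about 2 min; percent quench = mean of last 10 s over 15 s pre-ligand baseline.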
molecule,measurement,setting,value
B1,YFP fluorescence quenching using CNL001 (percent quench),"1 nM CNL001, first column so headed",24.049%
same,YFP fluorescence quenching using CNL001 (percent quench),"1 nM CNL001, second column so headed",36.755%
same,YFP fluorescence quenching using TC-5619/Bradanicline (percent quench),1 nM brd (TC-5619/Bradanicline),−10.07%
same,YFP fluorescence quenching using TC-5619/Bradanicline (percent quench),3 nM brd (TC-5619/Bradanicline),−0.8%
same,YFP fluorescence quenching using CNL001 (percent quench),"10 nM CNL001, first column so headed",52.927%
same,YFP fluorescence quenching using CNL001 (percent quench),"10 nM CNL001, second column so headed",61.449%
same,YFP fluorescence quenching using TC-5619/Bradanicline (percent quench),10 nM brd (TC-5619/Bradanicline),1.74%
same,YFP fluorescence quenching using TC-6683 (percent quench),30 nM TC-6683,1.189%
same,YFP fluorescence quenching using TC-5619/Bradanicline (percent quench),30 nM brd (TC-5619/Bradanicline),53.95%
same,YFP fluorescence quenching using CNL001 (percent quench),"50 nM CNL001, first column so headed",67.308%
same,YFP fluorescence quenching using CNL001 (percent quench),"50 nM CNL001, second column so headed",68.77%
same,YFP fluorescence quenching using ABT-126 (percent quench),50 nM abt (ABT-126),−11.89%
same,YFP fluorescence quenching using CNL001 (percent quench),"100 nM CNL001, first column so headed",69.049%
same,YFP fluorescence quenching using CNL001 (percent quench),"100 nM CNL001, second column so headed",71.613%
same,YFP fluorescence quenching (percent quench),100 nM CNL002,7.75%
same,YFP fluorescence quenching using ABT-126 (percent quench),100 nM abt (ABT-126),−16.07%
same,YFP fluorescence quenching using AZD-0328 (percent quench),100 nM azd0328,−4.76%
same,YFP fluorescence quenching using TC-6683 (percent quench),300 nM TC-6683,0.939%
same,YFP fluorescence quenching using ABT-126 (percent quench),300 nM abt (ABT-126),−11.21%
same,YFP fluorescence quenching using AZD-0328 (percent quench),300 nM azd0328,−7.52%
same,YFP fluorescence quenching using TC-5619/Bradanicline (percent quench),300 nM brd (TC-5619/Bradanicline),76.74%
same,YFP fluorescence quenching using CNL001 (percent quench),"1 uM CNL001, first column so headed",71.811%
same,YFP fluorescence quenching using CNL001 (percent quench),"1 uM CNL001, second column so headed",69.907%
same,YFP fluorescence quenching (percent quench),1 uM CNL002,61.97%
same,YFP fluorescence quenching using ABT-126 (percent quench),1 uM abt (ABT-126),−9.38%
same,YFP fluorescence quenching using TC-6683 (percent quench),3 uM TC-6683,1.327%
same,YFP fluorescence quenching (percent quench),10 uM ach (acetylcholine),−1.62%
same,YFP fluorescence quenching (percent quench),30 uM CNL002,65.77%
same,YFP fluorescence quenching using TC-6683 (percent quench),30 uM TC-6683,−0.845%
same,YFP fluorescence quenching using AZD-0328 (percent quench),30 uM azd0328,74.9%
same,YFP fluorescence quenching (percent quench),50 uM ach (acetylcholine),−1.6%
same,YFP fluorescence quenching using TC-6683 (percent quench),100 uM TC-6683,−3.136%
same,YFP fluorescence quenching (percent quench),100 uM ach (acetylcholine),−2.62%
same,YFP fluorescence quenching (percent quench),300 uM ach (acetylcholine),−6.12%
same,YFP fluorescence quenching (percent quench),500 uM ach (acetylcholine),−7.71%
same,YFP fluorescence quenching (percent quench),1 mM ach (acetylcholine),−5.73%
same,YFP fluorescence quenching (percent quench),3 mM ach (acetylcholine),33.69%
same,"YFP fluorescence quenching using Facinicline, 30 nM fac",ligand Facinicline 30 nM,−10.05
same,"YFP fluorescence quenching using Facinicline, 300 nM fac",ligand Facinicline 300 nM,−12.54
same,"YFP fluorescence quenching using Facinicline, 30 uM fac",ligand Facinicline 30 uM,70.96
same,"YFP fluorescence quenching using TC-6987, 1 uM tc6987",ligand TC-6987 1 uM,0.88
same,"YFP fluorescence quenching using TC-6987, 10 uM tc6987",ligand TC-6987 10 uM,56.27
same,"YFP fluorescence quenching using TC-6987, 500 uM tc6987",ligand TC-6987 500 uM,71.3
same,"YFP fluorescence quenching using Varenicline, 3 nM var",first column,−3.367
same,"YFP fluorescence quenching using Varenicline, 3 nM var",second column,−0.431
same,"YFP fluorescence quenching using Varenicline, 30 nM var",first column,−0.761
same,"YFP fluorescence quenching using Varenicline, 30 nM var",second column,2.989
same,"YFP fluorescence quenching using Varenicline, 300 nM var",first column,2.966
same,"YFP fluorescence quenching using Varenicline, 300 nM var",second column,10.211
same,"YFP fluorescence quenching using Varenicline, 500 nM var",first column,15.278
same,"YFP fluorescence quenching using Varenicline, 500 nM var",second column,20.84
same,"YFP fluorescence quenching using Varenicline, 1 uM var",first column,37.104
same,"YFP fluorescence quenching using Varenicline, 1 uM var",second column,42.439
